What all share (type): physicochemical
Data set [1] can be described thus: pH of bulk or reconstituted solution. To be noted: 4 mg/mL bulk solution. On the procedure: (§1) The bulk solution appearance, pH, density and BT5528 assay/related substances were recorded. Additional samples were subjected to three freeze (−20° C.)/thaw cycles, assessing appearance, pH, UPLC and sub-visible particulates (MFI) after each cycle.
(§2) The lyophilized product was placed on stability and tested for 1 month (according to Table 1-9) at accelerated storage of 25° C./60% RH. The lyophilized product was assessed by means of appearance, moisture content, and assay and related substances by UPLC. The reconstituted product was assessed on the basis of reconstitution time, solution appearance, pH and sub-visible particulates (T=0 only).

Data set [2] in a line: Appearance of solution (bulk or reconstituted), visual. As to conditions: 4 mg/mL bulk solution. On the procedure:
as §1, §2

Data set [3] is described as follows: Reconstitution time of lyophilized product. As to conditions: 21.2 mg/vial reconstituted with 5.3 mL 0.02 M HCl, versus 0.01 M HCl. The method, then: as §2
Formulations 1 to 4 had significant adsorptive properties with the drug product adsorbing onto the glass vial above and in the reconstituted solution. Formulation 5 (2 mg/mL BT5528) produced the best results with drug product adsorbing only slightly above the solution and no adsorption noted within the solution. Variability in reconstitution time derives from the analytical procedure deviating throughout the testing of formulation 1. This occurred due to the severe adsorptive nature of formulation 1. For the 4 mg/mL solution agitation occurred immediately after addition of reconstitution medium producing a severe adsorptive spread above the solution. A settle period before agitation was performed for the 2 mg/mL producing a better reconstitution performance although adsorption was still noted. For the 1.3 mg/mL solution a settle period of 5 minutes was performed to minimize the agitation required. […]

A short description of data set [4]: Density of final solution. To be noted: filtered 4 mg/mL solution. On the procedure: as §1
The pH of the solution was measured and adjusted to target (pH 6.8-7.2). The pH was 7.79 pH after the addition of API and was adjusted to 7.19 pH using 0.1 M HCl solution. The solution was transferred to a 20 mL volumetric flask and make to final volume with WFI. The solution was filtered through a single 0.22 μm, PES membrane syringe filter. The final solution was a clear, colourless solution which was free from any visible particulates. The density of the final solution was measured, 1.025 g/cm^3. A pre- and post-filtration sample was passed to analytical for HPLC analysis. The remaining bulk solution was filled in 2 mL volumes into 2 mL glass vials and subjected to three, freeze/thaw cycles.

On to “BT5528: Bicycle toxin conjugate; TATA scaffold; peptide ligand (β-Ala)-Sar10-A(HArg)D-Ci(HyP)LVNPLCiiLHP(D-Asp)W(HArg)Ciii (SEQ ID NO: 1)”, for which the pH in data set [1] (Freeze Thaw Cycle 1) was determined as 7.3; in data set [1] (Freeze Thaw Cycle 2), 7.3; in data set [1] (Freeze Thaw Cycle 3), 7.3; in data set [1] (Pre Filtration), 7.2. In addition, the Appearance entry in data set [2] (Freeze Thaw Cycle 1 (−20° C.)) is listed as “Clear, colourless solution free”; in data set [2] (Freeze Thaw Cycle 2), “Clear, colourless solution free”; in data set [2] (Freeze Thaw Cycle 3), “Clear, colourless solution free”; in data set [2] (Post Filtration), “Clear, colourless solution free”; in data set [2] (Pre Filtration), “Clear, colourless solution free”. In data set [3], the “reconstitution time and appearance of the reconstituted product (oily droplet formation)” value is “improved”. Further, in data set [4], the “density of the final solution” value was 1.025 g/mL.

(Values after US20260248917A1, “BICYCLIC PEPTIDE LIGANDS SPECIFIC FOR EPHA2 AND USES THEREOF” (BicycleTx Limited, priority 2019, published 2026).)
